“And” between values parts separate entries of the source, which are not always exact repeats. Identical values can stand only once.
What was measured:
[1] = target: Surfactant associated protein-A (human (endogenous in BAL fluid and serum)) (UniProt Q8IWL2)
[2] = target: Surfactant associated protein-A (human (endogenous in BAL fluid and serum)) (UniProt Q8IWL2); assay: SEC; Superose 6 column, 500 µl of serum loaded, fractions of 800 µl, SP-A in the fractions by slot blot; column calibrated with blue dextran (2000 kDa), holotransferrin (669 kDa) and bovine serum albumin (66 kDa); a peak counts as present at 20 % or more of total SP-A
[3] = target: Surfactant associated protein-A (human (endogenous in BAL fluid and serum)) (UniProt Q8IWL2); assay: as above; remark: listed apart in the source
[4] = target: Surfactant associated protein-A (human (endogenous in BAL fluid and serum)) (UniProt Q8IWL2); assay: SEC; Superose 6 column, 1 ml of BAL fluid loaded, fractions of 800 µl, SP-A in the fractions by slot blot; column calibrated with blue dextran (2000 kDa), holotransferrin (669 kDa) and bovine serum albumin (66 kDa); a peak counts as present at 20 % or more of total SP-A

Work on “Surfactant associated protein-A (from UniProt Q8IWL2 21-248) (natural protein)” yielded a size of agglutinates of anti-SP-A latex beads; BAL, 6mers, chronic bronchitis (n = 10) [1] of 316 Pixel, a size of agglutinates of anti-SP-A latex beads; BAL, 6mers, controls (n = 10) [1] of 352 Pixel and a size of agglutinates of anti-SP-A latex beads; BAL, 6mers, cystic fibrosis (n = 10) [1] of 234 Pixel. It also gave a size of agglutinates of anti-SP-A latex beads; BAL, 18mers, chronic bronchitis (n = 10) [1] of 370 Pixel, a size of agglutinates of anti-SP-A latex beads; BAL, 18mers, controls (n = 10) [1] of 517 Pixel and a size of agglutinates of anti-SP-A latex beads; BAL, 18mers, cystic fibrosis (n = 10) [1] of 316 Pixel. For the same substance, the size of agglutinates of anti-SP-A latex beads; BAL, trimers, chronic bronchitis (n = 10) [1] was 114 Pixel, the size of agglutinates of anti-SP-A latex beads; BAL, trimers, controls (n = 10) [1] was 118 Pixel and the size of agglutinates of anti-SP-A latex beads; BAL, trimers, cystic fibrosis (n = 10) [1] was 74 Pixel. It also gave a size of agglutinates of anti-SP-A latex beads; serum, 6mers, chronic bronchitis (n = 10) [1] of 377 Pixel, a size of agglutinates of anti-SP-A latex beads; serum, 6mers, controls (n = 10) [1] of 361 Pixel and a size of agglutinates of anti-SP-A latex beads; serum, 6mers, cystic fibrosis (n = 10) [1] of 380 Pixel. For the same substance, the size of agglutinates of anti-SP-A latex beads; serum, 18mers, chronic bronchitis (n = 10) [1] was 469 Pixel, the size of agglutinates of anti-SP-A latex beads; serum, 18mers, controls (n = 10) [1] was 525 Pixel and the size of agglutinates of anti-SP-A latex beads; serum, 18mers, cystic fibrosis (n = 10) [1] was 481 Pixel. For the same substance, the size of agglutinates of anti-SP-A latex beads; serum, trimers, chronic bronchitis (n = 10) [1] was 143 Pixel, the size of agglutinates of anti-SP-A latex beads; serum, trimers, controls (n = 10) [1] was 132 Pixel and the size of agglutinates of anti-SP-A latex beads; serum, trimers, cystic fibrosis (n = 10) [1] was 146 Pixel. For the same substance, the stoichiometry N [2] was 18, the stoichiometry N [3] was 2 and 3 and the stoichiometry N [4] was 18.

From PMC3517609
